# Measured values reported in paper PMC9352680, “A comprehensive thermodynamic model for RNA binding by the Saccharomyces cerevisiae Pumilio protein PUF4”.
# T1: PUF4 RNA-binding domain (Saccharomyces cerevisiae, UniProt P25339 537-888)
# T1 sequence: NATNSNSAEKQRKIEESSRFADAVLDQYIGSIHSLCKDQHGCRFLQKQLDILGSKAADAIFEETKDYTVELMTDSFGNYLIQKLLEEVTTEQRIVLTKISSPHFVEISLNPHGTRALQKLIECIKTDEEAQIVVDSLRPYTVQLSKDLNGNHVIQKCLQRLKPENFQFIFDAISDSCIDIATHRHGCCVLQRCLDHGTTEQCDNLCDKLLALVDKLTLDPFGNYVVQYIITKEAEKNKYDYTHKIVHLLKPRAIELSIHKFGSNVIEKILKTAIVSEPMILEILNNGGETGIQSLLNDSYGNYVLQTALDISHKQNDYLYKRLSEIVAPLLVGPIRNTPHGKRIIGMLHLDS
# Molecular target: T1, PUF4 RNA-binding domain
# Assay: Mg; RNA-MaP; 20 mM Na-HEPES pH 7.4, 30 mM KOAc, 0.75 mM MgCl2, 0.1% Tween-20, 5% glycerol, 0.1 mg/mL BSA, 2 mM DTT; 25 C; 0.0125-409.6 nM protein
# Details: tags: N-His6-TEV cleaved; C-SNAP kept, Cy3B-labelled; label: tethered on chip by stalled RNA polymerase
row,Binder,Kd [nM]
1,UCUCUUUGUACAUGAUCUCUU (ssRNA) [Ic_S1_P4E.1_K4.1_C4.1_H4.1_A4.1_[T5C]_F4.1_[T8G]_T4.1],20.2
2,Ic_S4_P4E.1_K4.1_C4.1_H4.1_A4.1_[T5C]_[A6G]_F4.1_[T8A]_[A9T]_T4.1 (ssRNA) RNA: UUUGACAACUGAUCGUUCUUUCUUGUACGUAUUUCUUUCUCGAUCAGUUGUCUUU,30.2
3,Ic_S4_P4E.1_K4.1_C4.1_H4.1_A4.1_[T5C]_[A6T]_[T7C]_F4.1_[T8A]_[A9G]_T4.1 (ssRNA) RNA: UUUGACAACUGAUCGUUCUUUCUUGUACUCAGUUCUUUCUCGAUCAGUUGUCUUU,819
4,Ic_S4_P4E.1_K4.1_C4.1_H4.1_A4.1_[T5C]_[A6T]_[T7C]_F4.1_[A9C]_T4.1 (ssRNA) RNA: UUUGACAACUGAUCGUUCUUUCUUGUACUCUCUUCUUUCUCGAUCAGUUGUCUUU,23.3
5,Ic_S4_P4E.1_K4.1_C4.1_H4.1_A4.1_[T5C]_[A6C]_F4.1_[T8A]_[A9T]_T4.1 (ssRNA) RNA: UUUGACAACUGAUCGUUCUUUCUUGUACCUAUUUCUUUCUCGAUCAGUUGUCUUU,12.9
6,Ic_S4_P4E.1_K4.1_C4.1_H4.1_A4.1_[T5C]_[A6C]_[T7C]_F4.1_[T8G]_[A9G]_T4.1 (ssRNA) RNA: UUUGACAACUGAUCGUUCUUUCUUGUACCCGGUUCUUUCUCGAUCAGUUGUCUUU,1370
7,Ic_S4_P4E.1_K4.1_C4.1_H4.1_A4.1_[T5C]_[A6T]_[T7G]_F4.1_[T8C]_T4.1 (ssRNA) RNA: UUUGACAACUGAUCGUUCUUUCUUGUACUGCAUUCUUUCUCGAUCAGUUGUCUUU,786
8,Ic_S4_P4E.1_K4.1_C4.1_H4.1_A4.1_[T5C]_[A6C]_[T7G]_F4.1_[T8C]_[A9G]_T4.1 (ssRNA) RNA: UUUGACAACUGAUCGUUCUUUCUUGUACCGCGUUCUUUCUCGAUCAGUUGUCUUU,827
9,Ic_S4_P4E.1_K4.1_C4.1_H4.1_A4.1_[T5C]_[A6T]_[T7A]_F4.1_[T8C]_T4.1 (ssRNA) RNA: UUUGACAACUGAUCGUUCUUUCUUGUACUACAUUCUUUCUCGAUCAGUUGUCUUU,279
10,Ic_S4_P4E.1_K4.1_C4.1_H4.1_A4.1_[T5C]_[A6C]_[T7G]_F4.1_[T8C]_[A9C]_T4.1 (ssRNA) RNA: UUUGACAACUGAUCGUUCUUUCUUGUACCGCCUUCUUUCUCGAUCAGUUGUCUUU,973
11,Ic_S4_P4E.1_K4.1_C4.1_H4.1_A4.1_[T5C]_[A6G]_F4.1_[A9T]_T4.1 (ssRNA) RNA: UUUGACAACUGAUCGUUCUUUCUUGUACGUUUUUCUUUCUCGAUCAGUUGUCUUU,11.9
12,Ic_S4_P4E.1_K4.1_C4.1_H4.1_A4.1_[T5C]_[A6T]_[T7A]_F4.1_[T8A]_[A9C]_T4.1 (ssRNA) RNA: UUUGACAACUGAUCGUUCUUUCUUGUACUAACUUCUUUCUCGAUCAGUUGUCUUU,404
13,Ic_S4_P4E.1_K4.1_C4.1_H4.1_A4.1_[T5C]_[A6T]_[T7G]_F4.1_[T8G]_[A9T]_T4.1 (ssRNA) RNA: UUUGACAACUGAUCGUUCUUUCUUGUACUGGUUUCUUUCUCGAUCAGUUGUCUUU,975
14,Ic_S4_P4E.1_K4.1_C4.1_H4.1_A4.1_[T5C]_[A6T]_[T7A]_F4.1_[T8C]_[A9T]_T4.1 (ssRNA) RNA: UUUGACAACUGAUCGUUCUUUCUUGUACUACUUUCUUUCUCGAUCAGUUGUCUUU,58.3
15,Ic_S4_P4E.1_K4.1_C4.1_H4.1_A4.1_[T5C]_[A6T]_[T7C]_F4.1_[T8C]_[A9G]_T4.1 (ssRNA) RNA: UUUGACAACUGAUCGUUCUUUCUUGUACUCCGUUCUUUCUCGAUCAGUUGUCUUU,552
16,Ic_S4_P4E.1_K4.1_C4.1_H4.1_A4.1_[T5C]_[A6C]_F4.1_T4.1 (ssRNA) RNA: UUUGACAACUGAUCGUUCUUUCUUGUACCUUAUUCUUUCUCGAUCAGUUGUCUUU,1.74
17,Ic_S4_P4E.1_K4.1_C4.1_H4.1_A4.1_[T5C]_[A6T]_[T7A]_F4.1_[T8C]_[A9G]_T4.1 (ssRNA) RNA: UUUGACAACUGAUCGUUCUUUCUUGUACUACGUUCUUUCUCGAUCAGUUGUCUUU,563
18,Ic_S4_P4E.1_K4.1_C4.1_H4.1_A4.1_[T5C]_[A6T]_[T7G]_F4.1_T4.1 (ssRNA) RNA: UUUGACAACUGAUCGUUCUUUCUUGUACUGUAUUCUUUCUCGAUCAGUUGUCUUU,3.86
19,Ic_S4_P4E.1_K4.1_C4.1_H4.1_A4.1_[T5C]_[A6C]_F4.1_[T8A]_[A9C]_T4.1 (ssRNA) RNA: UUUGACAACUGAUCGUUCUUUCUUGUACCUACUUCUUUCUCGAUCAGUUGUCUUU,75.8
20,Ic_S4_P4E.1_K4.1_C4.1_H4.1_A4.1_[T5C]_[A6T]_[T7G]_F4.1_[T8C]_[A9G]_T4.1 (ssRNA) RNA: UUUGACAACUGAUCGUUCUUUCUUGUACUGCGUUCUUUCUCGAUCAGUUGUCUUU,916
21,Ic_S4_P4E.1_K4.1_C4.1_H4.1_A4.1_[T5C]_[A6T]_F4.1_[T8C]_[A9C]_T4.1 (ssRNA) RNA: UUUGACAACUGAUCGUUCUUUCUUGUACUUCCUUCUUUCUCGAUCAGUUGUCUUU,94.5
22,Ic_S4_P4E.1_K4.1_C4.1_H4.1_A4.1_[T5C]_[A6C]_[T7A]_F4.1_[A9T]_T4.1 (ssRNA) RNA: UUUGACAACUGAUCGUUCUUUCUUGUACCAUUUUCUUUCUCGAUCAGUUGUCUUU,4.54
23,Ic_S4_P4E.1_K4.1_C4.1_H4.1_A4.1_[T5C]_[A6C]_[T7A]_F4.1_[T8A]_[A9T]_T4.1 (ssRNA) RNA: UUUGACAACUGAUCGUUCUUUCUUGUACCAAUUUCUUUCUCGAUCAGUUGUCUUU,45.5
24,Ic_S4_P4E.1_K4.1_C4.1_H4.1_A4.1_[T5C]_[A6C]_F4.1_[A9T]_T4.1 (ssRNA) RNA: UUUGACAACUGAUCGUUCUUUCUUGUACCUUUUUCUUUCUCGAUCAGUUGUCUUU,10.8
25,Ic_S4_P4E.1_K4.1_C4.1_H4.1_A4.1_[T5C]_[A6C]_[T7C]_F4.1_[A9C]_T4.1 (ssRNA) RNA: UUUGACAACUGAUCGUUCUUUCUUGUACCCUCUUCUUUCUCGAUCAGUUGUCUUU,31.2

row,Binder,Kd [nM]
1,Ic_S4_P4E.1_K4.1_C4.1_H4.1_A4.1_[T5C]_[A6C]_[T7A]_F4.1_[T8C]_T4.1 (ssRNA) RNA: UUUGACAACUGAUCGUUCUUUCUUGUACCACAUUCUUUCUCGAUCAGUUGUCUUU,151
2,Ic_S4_P4E.1_K4.1_C4.1_H4.1_A4.1_[T5C]_[A6C]_[T7C]_F4.1_[T8A]_[A9C]_T4.1 (ssRNA) RNA: UUUGACAACUGAUCGUUCUUUCUUGUACCCACUUCUUUCUCGAUCAGUUGUCUUU,1090
3,Ic_S4_P4E.1_K4.1_C4.1_H4.1_A4.1_[T5C]_[A6C]_F4.1_[T8C]_[A9C]_T4.1 (ssRNA) RNA: UUUGACAACUGAUCGUUCUUUCUUGUACCUCCUUCUUUCUCGAUCAGUUGUCUUU,91.4
4,Ic_S4_P4E.1_K4.1_C4.1_H4.1_A4.1_[T5C]_[A6C]_F4.1_[T8G]_[A9C]_T4.1 (ssRNA) RNA: UUUGACAACUGAUCGUUCUUUCUUGUACCUGCUUCUUUCUCGAUCAGUUGUCUUU,93
5,Ic_S4_P4E.1_K4.1_C4.1_H4.1_A4.1_[T5C]_[A6C]_[T7C]_F4.1_[T8C]_[A9G]_T4.1 (ssRNA) RNA: UUUGACAACUGAUCGUUCUUUCUUGUACCCCGUUCUUUCUCGAUCAGUUGUCUUU,642
6,Ic_S4_P4E.1_K4.1_C4.1_H4.1_A4.1_[T5C]_[A6C]_F4.1_[T8A]_T4.1 (ssRNA) RNA: UUUGACAACUGAUCGUUCUUUCUUGUACCUAAUUCUUUCUCGAUCAGUUGUCUUU,15.7
7,Ic_S4_P4E.1_K4.1_C4.1_H4.1_A4.1_[T5C]_[A6C]_[T7A]_F4.1_T4.1 (ssRNA) RNA: UUUGACAACUGAUCGUUCUUUCUUGUACCAUAUUCUUUCUCGAUCAGUUGUCUUU,0.476
8,Ic_S4_P4E.1_K4.1_C4.1_H4.1_A4.1_[T5C]_[A6C]_[T7A]_F4.1_[A9C]_T4.1 (ssRNA) RNA: UUUGACAACUGAUCGUUCUUUCUUGUACCAUCUUCUUUCUCGAUCAGUUGUCUUU,15.2
9,Ic_S4_P4E.1_K4.1_C4.1_H4.1_A4.1_[T5C]_[A6C]_[T7A]_F4.1_[T8C]_[A9T]_T4.1 (ssRNA) RNA: UUUGACAACUGAUCGUUCUUUCUUGUACCACUUUCUUUCUCGAUCAGUUGUCUUU,47.1
10,Ic_S4_P4E.1_K4.1_C4.1_H4.1_A4.1_[T5C]_[A6T]_[T7C]_F4.1_[T8G]_[A9T]_T4.1 (ssRNA) RNA: UUUGACAACUGAUCGUUCUUUCUUGUACUCGUUUCUUUCUCGAUCAGUUGUCUUU,138
11,Ic_S4_P4E.1_K4.1_C4.1_H4.1_A4.1_[T5C]_[A6T]_[T7C]_F4.1_[T8A]_T4.1 (ssRNA) RNA: UUUGACAACUGAUCGUUCUUUCUUGUACUCAAUUCUUUCUCGAUCAGUUGUCUUU,96.2
12,Ic_S4_P4E.1_K4.1_C4.1_H4.1_A4.1_[T5C]_[A6C]_[T7G]_F4.1_[T8G]_[A9T]_T4.1 (ssRNA) RNA: UUUGACAACUGAUCGUUCUUUCUUGUACCGGUUUCUUUCUCGAUCAGUUGUCUUU,2190
13,Ic_S4_P4E.1_K4.1_C4.1_H4.1_A4.1_[T5C]_[A6C]_[T7G]_F4.1_[T8C]_[A9T]_T4.1 (ssRNA) RNA: UUUGACAACUGAUCGUUCUUUCUUGUACCGCUUUCUUUCUCGAUCAGUUGUCUUU,150
14,Ic_S4_P4E.1_K4.1_C4.1_H4.1_A4.1_[T5C]_[A6C]_F4.1_[T8G]_[A9G]_T4.1 (ssRNA) RNA: UUUGACAACUGAUCGUUCUUUCUUGUACCUGGUUCUUUCUCGAUCAGUUGUCUUU,431
15,Ic_S4_P4E.1_K4.1_C4.1_H4.1_A4.1_[T5C]_[A6T]_[T7A]_F4.1_[A9C]_T4.1 (ssRNA) RNA: UUUGACAACUGAUCGUUCUUUCUUGUACUAUCUUCUUUCUCGAUCAGUUGUCUUU,15.8
16,Ic_S4_P4E.1_K4.1_C4.1_H4.1_A4.1_[T5C]_[A6T]_[T7G]_F4.1_[A9T]_T4.1 (ssRNA) RNA: UUUGACAACUGAUCGUUCUUUCUUGUACUGUUUUCUUUCUCGAUCAGUUGUCUUU,54.6
17,Ic_S4_P4E.1_K4.1_C4.1_H4.1_A4.1_[T5C]_[A6C]_[T7C]_F4.1_[T8G]_[A9C]_T4.1 (ssRNA) RNA: UUUGACAACUGAUCGUUCUUUCUUGUACCCGCUUCUUUCUCGAUCAGUUGUCUUU,1190
18,Ic_S4_P4E.1_K4.1_C4.1_H4.1_A4.1_[T5C]_[A6T]_[T7C]_F4.1_[T8C]_[A9C]_T4.1 (ssRNA) RNA: UUUGACAACUGAUCGUUCUUUCUUGUACUCCCUUCUUUCUCGAUCAGUUGUCUUU,394
19,Ic_S4_P4E.1_K4.1_C4.1_H4.1_A4.1_[T5C]_[A6C]_[T7G]_F4.1_[A9T]_T4.1 (ssRNA) RNA: UUUGACAACUGAUCGUUCUUUCUUGUACCGUUUUCUUUCUCGAUCAGUUGUCUUU,48.5
20,Ic_S4_P4E.1_K4.1_C4.1_H4.1_A4.1_[T5C]_[A6T]_[T7A]_F4.1_[T8A]_T4.1 (ssRNA) RNA: UUUGACAACUGAUCGUUCUUUCUUGUACUAAAUUCUUUCUCGAUCAGUUGUCUUU,21.7
21,UCUCUUUGUACAUAAUCUCUU (ssRNA) [Ic_S1_P4E.1_K4.1_C4.1_H4.1_A4.1_[T5C]_F4.1_[T8A]_T4.1],6.09
22,UCUCUUUGUAAAUCAUCUCUU (ssRNA) [Ib_S1_P4E.1_K4.1_C4.1_H4.1_A4.1_[T5A]_F4.1_[T8C]_T4.1],39.1
23,UCUCUUUGUAAAUGAUCUCUU (ssRNA) [Ib_S1_P4E.1_K4.1_C4.1_H4.1_A4.1_[T5A]_F4.1_[T8G]_T4.1],113
24,UCUCUUUGUACAUCAUCUCUU (ssRNA) [Ic_S1_P4E.1_K4.1_C4.1_H4.1_A4.1_[T5C]_F4.1_[T8C]_T4.1],8.45
